B1: SEQ ID NO: 206: Phytophthora sojae (strain P6497) carboxylate reductase (protein)
chain: MGAGSSSELPMSQIDFDSYTGKRYTVEVPNTRDATHGPAYEVADKEPVNEDEMTLYHNFLRGCSIEHGTRPLYGRRTVDADTGKAGAFEWLTYNEVKTRVERVASGLKAVGALERQDVVGVFSKNQLEWCLVAHACDRMSYVLVPLYDTLGPDAVPFIVNHTELRVLFCGKKQFDVVMDCVKDCPTLKTIVQFEPVTEQQIQQAAAKNLELRSLEELELLGEADPKRADPPKPTDVSTLCYTSGTTGDPKGVILLQRNYAYVVRQMCKRMQIFPSDVHCSYLPLAHVFERSVLGVLQAHGASAGFYQGDLLTLMDDLVELKPTVFVSVPRLFNRVYDKITQGVAAAGGLKKILFDRALAAKLAGLPEGHKTHALWDALVFSKVRLALGGRVRLIFSGSAPLSAEVKEFMKVVFCCDVAEGYGLSETAAAVTVGSVDMPMGPHVGCPLIYGQVQLEDVPEMGYTSRDKPRPRGEILVKGPMIFSGYYKEPEKTREAIDERGWFHTGDIGCWNADGTLSIIDRKKNIFKLAQGEYVAAEKIENIYAKSKYVAQIFAYGDSLQSCLVGIVVPDPETAEAWAQEKGLTGADASAAKVATNPEFQKAVLADMARVAKEAQLRGFEFVKSVHFHPEPFSLEQGLITPTFKLKRPQLKAHFQQQINMLYEGLK
modifications: Phytophthora sojae (strain P6497)
notes: Phytophthora sojae (strain P6497) carboxylate reductase
B2: SEQ ID NO: 198: Pestalotiopsis fici W106-1 carboxylate reductase (protein)
chain: MESYIEKARRYAQPPPPGAPQGVAVPNSKLPGRSAVYRHWRRGDELPDYFDPDLSSGYDMFEQTAKRQPDARCLGYRPYNGSTKSFGPYIWYSYDNVLKRSTDFGKGLAELLEANGVGGRQRPVGLWCANRPEWQFVDLGAMSQSLYSISLYETLGPAATEFLINHAEIPVVCASLEHIPALILAAPRCPSLKLIISLDPLTEEIDAPGTSRKELLSSLAAEKGLQVHDFRDVEKAGQASSRSLNRPRPDDIFTINYTSGTTGNPKGVVLRHSNAVAATVTCLTVYPMRSSDVLCSYLPLAHIYERFVEISAMYGGGSIGYFHGNPLELIDDLKLLRPTIFTSVPRLLNRMGSSIKAATIEQQGVKGALSRYIMETKMANIENDDPAKATNKHMVYDRIWGRKITAALGLDRTVHMMSGSAPLDGGLQQFLRIVFATEIVQGYGSTEMFAICLAQSAGDMSVRNCGGPAACVEVCLLDLPDMGYFSSDQPCPRGELLMRGPNVFSEYYKDDEETSKAFTEDGWFKTGDICAVDELGRFSIIDRRKNLLKLAQGEYISPEHIENVLLAQRPWLAQGYVHGDSAEAHLVGIFGVQPDIFCNFLNRTLGKECKPEDTDQLEAVLQEPEVRSAVVKELAMVGKSAKLNSYEIPRAVRLMIEPFTVENGLLTPTLKLKRPQTAKKFDHLIKEMYAETRKTSTLMAKL
modifications: Pestalotiopsis fici W106-1
notes: Pestalotiopsis fici W106-1 carboxylate reductase
B3: SEQ ID NO: 205: Kuraishia capsulata CBS 1993 carboxylate reductase (protein)
chain: MPSLPLPPYRAVFERAEDITRDALPFPPERNQRGIAVPGSVEPGYSAIYRSAATPDFLYDRVSPELDTYYRILKRSFEIFKDEDCVSERPQTGENSWSDKFVPRSYGEVYHDSLNFGSGLKYLLQKNEFRSGTEIPDKDYIVSIFSRNRAKWLVADISCTLFSLPNTALYDTLGPDTSTYILGLTKSPVVVAASDKISKLLDLKEADPAKLKNLIMLVAMDNLEPEVYSDLSRRAYKLNVKLYEWDQVTEAGILFPHEEVPPAPDSIYSLSFTSGTTGPPKGAILLHSGVAAGVAFTSATIDTPKQKAKLLSILPLAHIYERMTMALQLFRGGCLGFPHQPGPEHIVPNLRLFKPNLFSGVPRLFNKFEGVLKAATVHNPNASPAKRALAKRIIEWKMKQQCSKDGERGESILYDKLLNNKLRAALGFDNLYGVVTGSAPISAETIKFLKAALGVSFHQGYGLTETFAGVCVSAGLETDPGSCGVIGIATECRLKDTPELGYTSSDEGGPRGELLLRGSQVFPGYYKNEEETKKALDEDGWYHTGDIARIDSKCRIYVIDRVKNLFKLSQGEYVAPERIENIYLSSCTDFVSQIYVHGDSFSNYLVGIVGVDILGLSAFLKRKHPDLWRQVEGKTPEEILDIISSSRQLKSAILAQMNRNVSSAGLNGYEKLHNLKIGIEPLKVEDEVLTPTLKLKRNNALTKFNTDLKNLYEEGSLIKNEKL
modifications: Kuraishia capsulata CBS 1993
notes: Kuraishia capsulata CBS 1993 carboxylate reductase
B4: SEQ ID NO: 196: Chromera velia CCMP2878 carboxylate reductase (protein)
chain: MGAQCSAKNSLTYSIPYGEPQAEDESALYANPYMPELAGCDGLKSCWENFEVAVSSTGDKPAVGTREKQADGTLGKYVWKSWKEVAETVANLHAGLQSLDAFPLQSFPEESVQQTFKFLGVTGKNREEYLETMLAAYRAGVCLVPLYDTLGENTYEYCINQTGLKTVIVGDLKIASKLLHVAKKCECFKIIVCMDAVSDELKQEANASGVTIHSFEEVCEIGKQKPVDPTPAQSDMEINTICYTSGTTGNPKGVLVTHRALLTALSTSDELFKKEGFKIDFNDTHISYLPYAHVMERAVTEICVRRGMRIAFYSGDTTKIVDDIQLARPTVFFSVPRLYTRIYDRILSQAAAAGGIKKSLFDRALESKLTELRSTGNFTHKLWDAIVFSKIKDVLGGRVRFLVTGSAPMAKEVQEVLKVCFCCPMMEAFGMTETACCGTATAALDPTTGHVGGVVPGILLKVKGIPEMGYSPNDRGENGELMPRGELMVKGAAVFPGYFKEPEKTKEALDADGWLRTGDVCVINPNGSFKIIDRAKNIFKLAQGEYVAPEKIENIYIQCESVAQAFVTGYGTEKVLVCVVVPDEGYAKNWAKEKGLEGDAASLSALCATHGDLEAEVFKQIDAIGKARGLSGIEKAKAVRLYAEPFSVENDLLTATFKLKRHQANKTFKAQIDEMYAELNAKEKARGGS
modifications: Chromera velia CCMP2878
notes: Chromera velia CCMP2878 carboxylate reductase
B5: SEQ ID NO: 197: Cyberlindnera jadinii carboxylate reductase (protein, listed as Cyberlindnera jadinii)
chain: MNFNQPVNPQPVPGSRVEGYSEIFTNDPPVVLDPSMDTLSKMWNNAVANFANFDCMGVRKFHNTRKQQLDTFFTYDSYAEVDRKKHNISCGIIHLVTHHPKYRELLSIAGKPEFVVGILSPNRYEWMLVDLATRDFSLTNTALYPTLGQQSSQYILSVTESPIIFLTKDQIPKILEIKPELPLLNILVSLDDFDHDDHDLFVRAQSLGVSLVDFRAVEKIGERHPLPKDFNPPTTDTIYTISFTSGTTGNPKGVLIPHEMAACGIISCTMGLESPFELPKGAKRRQFGENVDQHGVQVTALCHLPLAHIYEREISNYALMSGFRLGFPSSTNPAMFFDDLKSIKPHYLASVPRVYNKLDALLKAKVKRGTPPHVVRKTFGLDHCRYLVSGSAPLGVETIKYLKQTLDIGFSVCYGSTETFAGFFFGDAFEDVITNSCGHPSASVQIRLRDVPEMGYHTNETPMRGELMVKGPQVFSEYFKNPKATADSFDKDGWFHTGDIVSMDSERRVYIIDRVKNFFKLQQGEFVTPERIENIYLAHSPLLTQLFVHGDSLQNFLVGVAGISLEYVQEMFKQDFGVAISQDEVLGLLQDPKYKAMLIKQLNHHVSGADLQGFEKIHNIHVDLEPLRLEDEVLTPTMKIKRENAKKKFAPILEKLYTEGSLVVKQKL

A short description of the assay: In vivo carboxylate reductase screening, substrate consumption by LC-MS, heptanedioate. As to conditions: 541 enzymes screened in vivo. Format: cell-based, Escherichia coli. How it is done: To screen carboxylate reductases in vivo, […] T7- pUC expression vectors was co-transformed into T7 Express lysY/Iq with the phosphopantetheinyl transferase sfp from Bacillus subtilis on a T7-pCDF expression vector. Biological duplicates of the resulting strains were incubated in 0.5 mL of terrific broth containing either 1 g/L heptanedioate or 1 g/L monomethyl heptanedioate and supplemented with 0.4 mM IPTG in 96-well deep well plates. The plates were incubated for 30 h at 30° C. in a shaking incubator. The cells were then pelleted, and culture supernatants from the same strains in media containing either heptanedioate or monomethyl heptanedioate were combined. The combined supernatants were analyzed by LC-MS to determine the concentration of heptanedioate and monomethyl heptanedioate. Carboxylate reductase activity on heptanedioate or monomethyl heptanedioate was reflected by consumption of the respective substrate in the medium.
Turning to B1, the “substrate preference, heptanedioic acid to 7-oxoheptanoate” value (from here on “substrate preference, heptanedioic acid”) was “preferred acting upon heptanedioic acid to form 7-oxoheptanoate”.

As to B2, the “substrate preference, heptanedioic acid” value is “preferred acting upon heptanedioic acid to form 7-oxoheptanoate”.

For the molecule B3, the “substrate preference, heptanedioic acid” value was “preferred acting upon heptanedioic acid to form 7-oxoheptanoate”. With B4 the entry was “preferred acting upon heptanedioic acid to form 7-oxoheptanoate”; with B5, “preferred acting upon heptanedioic acid to form 7-oxoheptanoate”.

These data come from patent US10801046B2, “Methods and materials for biosynthesizing multifunctional, multivariate molecules via carbon chain modification” (INVISTA NORTH AMERICA S.A.R.L., priority 2016, dated 2020).
